We go through 1 molecule from article PMC6421079.

In this experiment the target is Rubiscolin-6 (Spinacia oleracea). Kind of experiment: [3H]DPDPE displacement radioligand binding.

B1: Delta opioid receptor, P41143 (protein)
chain: MEPAPSAGAELQPPLFANASDAYPSACPSAGANASGPPGARSASSLALAIAITALYSAVCAVGLLGNVLVMFGIVRYTKMKTATNIYIFNLALADALATSTLPFQSAKYLMETWPFGELLCKAVLSIDYYNMFTSIFTLTMMSVDRYIAVCHPVKALDFRTPAKAKLINICIWVLASGVGVPIMVMAVTRPRDGAVVCMLQFPSPSWYWDTVTKICVFLFAFVVPILIITVCYGLMLLRLRSVRLLSGSKEKDRSLRRITRMVLVVVGAFVVCWAPIHIFVIVWTLVDIDRRDPLVVAALHLCIALGYANSSLNPVLYAFLDENFKRCFRQLCRKPCGRPDPSSFSRAREATARERVTACTPSDGPGGGAAA
In the case of B1, the Ki – broadly, a dissociation constant, usually derived from enzyme kinetics or from competition with a known ligand – was 1000 nM.
